Data published in patent US12295987B2, “Method of using a GIP/GLP1 co-agonist for diabetes” (Eli Lilly and Company, priority 2018, dated 2025).
Numbered stars: 1 amine (or outer) side, 2 acyl side, 3 side chain; on linkers, the order of the positions; unused ones are H or OH. Square brackets hold non-standard residues; d marks the D form. Side chains are listed from the residue outwards. Ends that are not written are not given here. * marks the point of attachment. C20 diacid = O=C(O)CCCCCCCCCCCCCCCCCCC(=O)*; γGlu = O=C(O)[C@H](CCC(=O)[*:2])N[*:1]; AEEA = NCCOCCOCC(=O)O; Aib = CC(C)(N)C(=O)O

Biological target: T1, human gastric inhibitory peptide receptor (hGIPR) (Homo sapiens, UniProt P48546)
T1 construct: expressed in transfected cells; host or cells: HEK293
T1 sequence (P48546 22-466): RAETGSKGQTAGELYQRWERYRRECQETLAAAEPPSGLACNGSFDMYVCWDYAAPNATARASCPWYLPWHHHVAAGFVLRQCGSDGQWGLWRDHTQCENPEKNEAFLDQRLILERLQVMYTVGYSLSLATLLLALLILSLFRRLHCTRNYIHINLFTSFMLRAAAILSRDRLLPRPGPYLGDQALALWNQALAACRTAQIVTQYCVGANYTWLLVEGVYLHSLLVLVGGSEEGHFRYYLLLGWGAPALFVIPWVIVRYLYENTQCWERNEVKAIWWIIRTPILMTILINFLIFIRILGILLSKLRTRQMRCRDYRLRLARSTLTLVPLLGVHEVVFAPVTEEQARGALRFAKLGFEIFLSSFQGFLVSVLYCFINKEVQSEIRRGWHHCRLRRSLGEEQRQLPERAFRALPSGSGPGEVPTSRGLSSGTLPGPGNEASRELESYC
Assay: cAMP pharmacological functional assay in presence of 0.1% casein, hGIPR
Format: cell-based
Conditions: ratio of hGIPR to hGLP1R cAMP EC50 ratios

Row | Substance | [hGIPR/hGLP1R] EC50 Ratio
1 | Y-Aib-EGTFTSDYSILLDKIAQ-Aib-AFIEYLIEGGPSSGAPPK((2-[2-(2-Amino-ethoxy)-ethoxy]-acetyl)2-(γGlu)-CO—(CH2)18—CO2H)S-NH2 (Y[Aib]EGTFTSDYSILLDKIAQ[Aib]AFIEYLIEGGPSSGAPPK([AEEA-AEEA-γGlu-C20 diacid])S-NH2; N-terminus assumed; SMILES CC[C@H](C)[C@H](NC(=O)[C@H](CCCCN)NC(=O)[C@H](CC(=O)O)NC(=O)[C@H](CC(C)C)NC(=O)[C@H](CC(C)C)NC(=O)[C@@H](NC(=O)[C@H](CO)NC(=O)[C@H](Cc1ccc(O)cc1)NC(=O)[C@H](CC(=O)O)NC(=O)[C@H](CO)NC(=O)[C@@H](NC(=O)[C@H](Cc1ccccc1)NC(=O)[C@@H](NC(=O)CNC(=O)[C@H](CCC(=O)O)NC(=O)C(C)(C)NC(=O)[C@@H](N)Cc1ccc(O)cc1)[C@@H](C)O)[C@@H](C)O)[C@@H](C)CC)C(=O)N[C@@H](C)C(=O)N[C@@H](CCC(N)=O)C(=O)NC(C)(C)C(=O)N[C@@H](C)C(=O)N[C@@H](Cc1ccccc1)C(=O)N[C@H](C(=O)N[C@@H](CCC(=O)O)C(=O)N[C@@H](Cc1ccc(O)cc1)C(=O)N[C@@H](CC(C)C)C(=O)N[C@H](C(=O)N[C@@H](CCC(=O)O)C(=O)NCC(=O)NCC(=O)N1CCC[C@H]1C(=O)N[C@@H](CO)C(=O)N[C@@H](CO)C(=O)NCC(=O)N[C@@H](C)C(=O)N1CCC[C@H]1C(=O)N1CCC[C@H]1C(=O)N[C@@H](CCCCNC(=O)COCCOCCNC(=O)COCCOCCNC(=O)CC[C@H](NC(=O)CCCCCCCCCCCCCCCCCCC(=O)O)C(=O)O)C(=O)N[C@@H](CO)C(N)=O)[C@@H](C)CC)[C@@H](C)CC) [Peptide 47] | 7.35
2 | Y-Aib-EGTFTSDYSILLDKIAQ-Aib-AFIEYLIEGGPSSGAPPPK((2-[2-(2-Amino-ethoxy)-ethoxy]-acetyl)2-(γGlu)-CO—(CH2)18—CO2H)—NH2 (Y[Aib]EGTFTSDYSILLDKIAQ[Aib]AFIEYLIEGGPSSGAPPPK([AEEA-AEEA-γGlu-C20 diacid])-NH2; N-terminus assumed; SMILES CC[C@H](C)[C@H](NC(=O)[C@H](CCCCN)NC(=O)[C@H](CC(=O)O)NC(=O)[C@H](CC(C)C)NC(=O)[C@H](CC(C)C)NC(=O)[C@@H](NC(=O)[C@H](CO)NC(=O)[C@H](Cc1ccc(O)cc1)NC(=O)[C@H](CC(=O)O)NC(=O)[C@H](CO)NC(=O)[C@@H](NC(=O)[C@H](Cc1ccccc1)NC(=O)[C@@H](NC(=O)CNC(=O)[C@H](CCC(=O)O)NC(=O)C(C)(C)NC(=O)[C@@H](N)Cc1ccc(O)cc1)[C@@H](C)O)[C@@H](C)O)[C@@H](C)CC)C(=O)N[C@@H](C)C(=O)N[C@@H](CCC(N)=O)C(=O)NC(C)(C)C(=O)N[C@@H](C)C(=O)N[C@@H](Cc1ccccc1)C(=O)N[C@H](C(=O)N[C@@H](CCC(=O)O)C(=O)N[C@@H](Cc1ccc(O)cc1)C(=O)N[C@@H](CC(C)C)C(=O)N[C@H](C(=O)N[C@@H](CCC(=O)O)C(=O)NCC(=O)NCC(=O)N1CCC[C@H]1C(=O)N[C@@H](CO)C(=O)N[C@@H](CO)C(=O)NCC(=O)N[C@@H](C)C(=O)N1CCC[C@H]1C(=O)N1CCC[C@H]1C(=O)N1CCC[C@H]1C(=O)N[C@@H](CCCCNC(=O)COCCOCCNC(=O)COCCOCCNC(=O)CC[C@H](NC(=O)CCCCCCCCCCCCCCCCCCC(=O)O)C(=O)O)C(N)=O)[C@@H](C)CC)[C@@H](C)CC) [Peptide 48] | 8.93
3 | Y-Aib-EGTFTSDYSILLDKIAQ-Aib-AFIEYLIK((2-[2-(2-Amino-ethoxy)-ethoxy]-acetyl)2-(γGlu)-CO—(CH2)18—CO2H)GG-NH2 (Y[Aib]EGTFTSDYSILLDKIAQ[Aib]AFIEYLIK([AEEA-AEEA-γGlu-C20 diacid])GG-NH2; N-terminus assumed; SMILES CC[C@H](C)[C@H](NC(=O)[C@H](CCCCN)NC(=O)[C@H](CC(=O)O)NC(=O)[C@H](CC(C)C)NC(=O)[C@H](CC(C)C)NC(=O)[C@@H](NC(=O)[C@H](CO)NC(=O)[C@H](Cc1ccc(O)cc1)NC(=O)[C@H](CC(=O)O)NC(=O)[C@H](CO)NC(=O)[C@@H](NC(=O)[C@H](Cc1ccccc1)NC(=O)[C@@H](NC(=O)CNC(=O)[C@H](CCC(=O)O)NC(=O)C(C)(C)NC(=O)[C@@H](N)Cc1ccc(O)cc1)[C@@H](C)O)[C@@H](C)O)[C@@H](C)CC)C(=O)N[C@@H](C)C(=O)N[C@@H](CCC(N)=O)C(=O)NC(C)(C)C(=O)N[C@@H](C)C(=O)N[C@@H](Cc1ccccc1)C(=O)N[C@H](C(=O)N[C@@H](CCC(=O)O)C(=O)N[C@@H](Cc1ccc(O)cc1)C(=O)N[C@@H](CC(C)C)C(=O)N[C@H](C(=O)N[C@@H](CCCCNC(=O)COCCOCCNC(=O)COCCOCCNC(=O)CC[C@H](NC(=O)CCCCCCCCCCCCCCCCCCC(=O)O)C(=O)O)C(=O)NCC(=O)NCC(N)=O)[C@@H](C)CC)[C@@H](C)CC) [Peptide 73] | 7.73
4 | Y-Aib-EGTFTSDYSILLDKIAQ-Aib-AFIEYLIK((2-[2-(2-Amino-ethoxy)-ethoxy]-acetyl)2-(γGlu)-CO—(CH2)18—CO2H)GGPSSGAPPPS-NH2 (Y[Aib]EGTFTSDYSILLDKIAQ[Aib]AFIEYLIK([AEEA-AEEA-γGlu-C20 diacid])GGPSSGAPPPS-NH2; N-terminus assumed; SMILES CC[C@H](C)[C@H](NC(=O)[C@H](CCCCN)NC(=O)[C@H](CC(=O)O)NC(=O)[C@H](CC(C)C)NC(=O)[C@H](CC(C)C)NC(=O)[C@@H](NC(=O)[C@H](CO)NC(=O)[C@H](Cc1ccc(O)cc1)NC(=O)[C@H](CC(=O)O)NC(=O)[C@H](CO)NC(=O)[C@@H](NC(=O)[C@H](Cc1ccccc1)NC(=O)[C@@H](NC(=O)CNC(=O)[C@H](CCC(=O)O)NC(=O)C(C)(C)NC(=O)[C@@H](N)Cc1ccc(O)cc1)[C@@H](C)O)[C@@H](C)O)[C@@H](C)CC)C(=O)N[C@@H](C)C(=O)N[C@@H](CCC(N)=O)C(=O)NC(C)(C)C(=O)N[C@@H](C)C(=O)N[C@@H](Cc1ccccc1)C(=O)N[C@H](C(=O)N[C@@H](CCC(=O)O)C(=O)N[C@@H](Cc1ccc(O)cc1)C(=O)N[C@@H](CC(C)C)C(=O)N[C@H](C(=O)N[C@@H](CCCCNC(=O)COCCOCCNC(=O)COCCOCCNC(=O)CC[C@H](NC(=O)CCCCCCCCCCCCCCCCCCC(=O)O)C(=O)O)C(=O)NCC(=O)NCC(=O)N1CCC[C@H]1C(=O)N[C@@H](CO)C(=O)N[C@@H](CO)C(=O)NCC(=O)N[C@@H](C)C(=O)N1CCC[C@H]1C(=O)N1CCC[C@H]1C(=O)N1CCC[C@H]1C(=O)N[C@@H](CO)C(N)=O)[C@@H](C)CC)[C@@H](C)CC) [Peptide 37] | 9.98
